Source: patent US20180022780A1 (Bayer, published 2018)
Bridge positions count the residues as written; N and C are the ends. Square brackets hold non-standard residues; d marks the D form. Ends that are not written are not given here. * marks the point of attachment. Palmitoyl = CCCCCCCCCCCCCCCC(=O)*; NMeK = CN[C@@H](CCCCN)C(=O)O; Orn = NCCC[C@H](N)C(=O)O; Dab = NCC[C@H](N)C(=O)O; Dap = NC[C@H](N)C(=O)O

What was measured:
[1] = target: CLR fused to EYFP with RAMP2 fused to ECFP; test: cell-based or functional assay
Sequence of CLR fused to EYFP with RAMP2 fused to ECFP (Q16602 whole entry, chain 1 of 2, the tested form may be a part): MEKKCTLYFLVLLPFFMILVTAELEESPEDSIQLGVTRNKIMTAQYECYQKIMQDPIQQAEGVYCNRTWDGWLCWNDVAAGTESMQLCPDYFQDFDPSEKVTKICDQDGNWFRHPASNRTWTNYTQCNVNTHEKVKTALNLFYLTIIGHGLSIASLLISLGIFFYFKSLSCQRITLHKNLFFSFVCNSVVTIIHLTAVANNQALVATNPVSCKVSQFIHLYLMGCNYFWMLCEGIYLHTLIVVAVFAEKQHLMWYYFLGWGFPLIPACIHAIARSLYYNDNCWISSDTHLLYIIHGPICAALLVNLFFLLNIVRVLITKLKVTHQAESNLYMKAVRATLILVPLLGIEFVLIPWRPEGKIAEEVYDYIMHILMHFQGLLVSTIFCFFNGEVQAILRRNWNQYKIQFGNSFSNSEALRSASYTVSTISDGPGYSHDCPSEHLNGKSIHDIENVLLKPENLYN
Sequence of CLR fused to EYFP with RAMP2 fused to ECFP (O60895 whole entry, chain 2 of 2, further chain, the tested form may be a part): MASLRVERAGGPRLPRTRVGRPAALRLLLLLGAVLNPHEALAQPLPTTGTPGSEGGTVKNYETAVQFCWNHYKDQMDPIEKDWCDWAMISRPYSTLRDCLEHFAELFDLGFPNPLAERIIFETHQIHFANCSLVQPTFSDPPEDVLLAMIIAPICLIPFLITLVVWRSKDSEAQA

[2] = target: human adrenomedullin-receptor (human, UniProt Q16602 23-461); test: cell-based or functional assay
Sequence of human adrenomedullin-receptor (Q16602 23-461): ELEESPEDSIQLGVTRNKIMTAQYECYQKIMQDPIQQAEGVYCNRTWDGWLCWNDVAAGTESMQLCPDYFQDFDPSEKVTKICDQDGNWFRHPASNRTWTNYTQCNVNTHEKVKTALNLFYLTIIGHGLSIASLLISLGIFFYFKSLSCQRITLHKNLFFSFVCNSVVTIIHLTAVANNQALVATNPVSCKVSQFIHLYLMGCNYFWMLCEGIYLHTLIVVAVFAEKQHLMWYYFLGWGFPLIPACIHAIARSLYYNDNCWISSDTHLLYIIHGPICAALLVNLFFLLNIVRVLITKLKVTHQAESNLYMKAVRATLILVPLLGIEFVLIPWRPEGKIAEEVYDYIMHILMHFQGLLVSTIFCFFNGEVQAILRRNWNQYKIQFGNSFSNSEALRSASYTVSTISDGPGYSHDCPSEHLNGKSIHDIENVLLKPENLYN

| EC50 [nM], cAMP assay (CRE-luciferase luminescence, HEK293 cells) [1] [nM] | EC50 [nM], aequorin luminescence of CHO adrenomedullin-receptor reporter cells [2] [nM] | Binder |
| --- | --- | --- |
| 2.9 | 5.26 | GG[Dap]RFGTETVQKLAHQIYQFTDKDKDNVAPRSKISPQGY-NH2 (lactam 3-8; N-terminus assumed; SMILES CC[C@H](C)[C@H](NC(=O)[C@H](CCC(N)=O)NC(=O)[C@H](Cc1c[nH]cn1)NC(=O)[C@H](C)NC(=O)[C@H](CC(C)C)NC(=O)[C@H](CCCCN)NC(=O)[C@H](CCC(N)=O)NC(=O)[C@@H](NC(=O)[C@@H](NC(=O)[C@@H]1CCC(=O)NC[C@H](NC(=O)CNC(=O)CN)C(=O)N[C@@H](CCCNC(=N)N)C(=O)N[C@@H](Cc2ccccc2)C(=O)NCC(=O)N[C@@H]([C@@H](C)O)C(=O)N1)[C@@H](C)O)C(C)C)C(=O)N[C@@H](Cc1ccc(O)cc1)C(=O)N[C@@H](CCC(N)=O)C(=O)N[C@@H](Cc1ccccc1)C(=O)N[C@H](C(=O)N[C@@H](CC(=O)O)C(=O)N[C@@H](CCCCN)C(=O)N[C@@H](CC(=O)O)C(=O)N[C@@H](CCCCN)C(=O)N[C@@H](CC(=O)O)C(=O)N[C@@H](CC(N)=O)C(=O)N[C@H](C(=O)N[C@@H](C)C(=O)N1CCC[C@H]1C(=O)N[C@@H](CCCNC(=N)N)C(=O)N[C@@H](CO)C(=O)N[C@@H](CCCCN)C(=O)N[C@H](C(=O)N[C@@H](CO)C(=O)N1CCC[C@H]1C(=O)N[C@@H](CCC(N)=O)C(=O)NCC(=O)N[C@@H](Cc1ccc(O)cc1)C(N)=O)[C@@H](C)CC)C(C)C)[C@@H](C)O) [[G^14, (Dpr^16, E^21)lac]ADM(14-52)] |
| 2.3 | 15 | GGDRFGTKTVQKLAHQIYQFTDKDKDNVAPRSKISPQGY-NH2 (lactam 3-8) [[G^14, (D^16, K^21)lac]ADM(14-52)] |
| 21 | 21.1 | GGDRFGT[Dab]TVQKLAHQIYQFTDKDKDNVAPRSKISPQGY-NH2 (lactam 3-8) [[G^14, (D^16, Dab^21)lac]ADM(14-52)] |
| 67 | 49.6 | GG[Dap]RFGTDTVQKLAHQIYQFTDKDKDNVAPRSKISPQGY-NH2 (lactam 3-8; N-terminus assumed; SMILES CC[C@H](C)[C@H](NC(=O)[C@H](CCC(N)=O)NC(=O)[C@H](Cc1c[nH]cn1)NC(=O)[C@H](C)NC(=O)[C@H](CC(C)C)NC(=O)[C@H](CCCCN)NC(=O)[C@H](CCC(N)=O)NC(=O)[C@@H](NC(=O)[C@@H](NC(=O)[C@@H]1CC(=O)NC[C@H](NC(=O)CNC(=O)CN)C(=O)N[C@@H](CCCNC(=N)N)C(=O)N[C@@H](Cc2ccccc2)C(=O)NCC(=O)N[C@@H]([C@@H](C)O)C(=O)N1)[C@@H](C)O)C(C)C)C(=O)N[C@@H](Cc1ccc(O)cc1)C(=O)N[C@@H](CCC(N)=O)C(=O)N[C@@H](Cc1ccccc1)C(=O)N[C@H](C(=O)N[C@@H](CC(=O)O)C(=O)N[C@@H](CCCCN)C(=O)N[C@@H](CC(=O)O)C(=O)N[C@@H](CCCCN)C(=O)N[C@@H](CC(=O)O)C(=O)N[C@@H](CC(N)=O)C(=O)N[C@H](C(=O)N[C@@H](C)C(=O)N1CCC[C@H]1C(=O)N[C@@H](CCCNC(=N)N)C(=O)N[C@@H](CO)C(=O)N[C@@H](CCCCN)C(=O)N[C@H](C(=O)N[C@@H](CO)C(=O)N1CCC[C@H]1C(=O)N[C@@H](CCC(N)=O)C(=O)NCC(=O)N[C@@H](Cc1ccc(O)cc1)C(N)=O)[C@@H](C)CC)C(C)C)[C@@H](C)O) [[G^14, (Dpr^16, D^21)lac]ADM(14-52)] |
| > 1000 | 32 | GGDRFGT[Dap]TVQKLAHQIYQFTDKDKDNVAPRSKISPQGY-NH2 (lactam 3-8) [[G^14, (D^16, Dpr^21)lac]ADM(14-52)] |
| 112 | > 1000 | GG[Dab]RFGTDTVQKLAHQIYQFTDKDKDNVAPRSKISPQGY-NH2 (lactam 3-8; N-terminus assumed; SMILES CC[C@H](C)[C@H](NC(=O)[C@H](CCC(N)=O)NC(=O)[C@H](Cc1c[nH]cn1)NC(=O)[C@H](C)NC(=O)[C@H](CC(C)C)NC(=O)[C@H](CCCCN)NC(=O)[C@H](CCC(N)=O)NC(=O)[C@@H](NC(=O)[C@@H](NC(=O)[C@@H]1CC(=O)NCC[C@H](NC(=O)CNC(=O)CN)C(=O)N[C@@H](CCCNC(=N)N)C(=O)N[C@@H](Cc2ccccc2)C(=O)NCC(=O)N[C@@H]([C@@H](C)O)C(=O)N1)[C@@H](C)O)C(C)C)C(=O)N[C@@H](Cc1ccc(O)cc1)C(=O)N[C@@H](CCC(N)=O)C(=O)N[C@@H](Cc1ccccc1)C(=O)N[C@H](C(=O)N[C@@H](CC(=O)O)C(=O)N[C@@H](CCCCN)C(=O)N[C@@H](CC(=O)O)C(=O)N[C@@H](CCCCN)C(=O)N[C@@H](CC(=O)O)C(=O)N[C@@H](CC(N)=O)C(=O)N[C@H](C(=O)N[C@@H](C)C(=O)N1CCC[C@H]1C(=O)N[C@@H](CCCNC(=N)N)C(=O)N[C@@H](CO)C(=O)N[C@@H](CCCCN)C(=O)N[C@H](C(=O)N[C@@H](CO)C(=O)N1CCC[C@H]1C(=O)N[C@@H](CCC(N)=O)C(=O)NCC(=O)N[C@@H](Cc1ccc(O)cc1)C(N)=O)[C@@H](C)CC)C(C)C)[C@@H](C)O) [[G^14, (Dab^16, D^21)lac]ADM(14-52)] |
| 9.1 | 27 | GG[Orn]RFGTETVQKLAHQIYQFTDKDKDNVAPRSKISPQGY-NH2 (lactam 3-8; N-terminus assumed; SMILES CC[C@H](C)[C@H](NC(=O)[C@H](CCC(N)=O)NC(=O)[C@H](Cc1c[nH]cn1)NC(=O)[C@H](C)NC(=O)[C@H](CC(C)C)NC(=O)[C@H](CCCCN)NC(=O)[C@H](CCC(N)=O)NC(=O)[C@@H](NC(=O)[C@@H](NC(=O)[C@@H]1CCC(=O)NCCC[C@H](NC(=O)CNC(=O)CN)C(=O)N[C@@H](CCCNC(=N)N)C(=O)N[C@@H](Cc2ccccc2)C(=O)NCC(=O)N[C@@H]([C@@H](C)O)C(=O)N1)[C@@H](C)O)C(C)C)C(=O)N[C@@H](Cc1ccc(O)cc1)C(=O)N[C@@H](CCC(N)=O)C(=O)N[C@@H](Cc1ccccc1)C(=O)N[C@H](C(=O)N[C@@H](CC(=O)O)C(=O)N[C@@H](CCCCN)C(=O)N[C@@H](CC(=O)O)C(=O)N[C@@H](CCCCN)C(=O)N[C@@H](CC(=O)O)C(=O)N[C@@H](CC(N)=O)C(=O)N[C@H](C(=O)N[C@@H](C)C(=O)N1CCC[C@H]1C(=O)N[C@@H](CCCNC(=N)N)C(=O)N[C@@H](CO)C(=O)N[C@@H](CCCCN)C(=O)N[C@H](C(=O)N[C@@H](CO)C(=O)N1CCC[C@H]1C(=O)N[C@@H](CCC(N)=O)C(=O)NCC(=O)N[C@@H](Cc1ccc(O)cc1)C(N)=O)[C@@H](C)CC)C(C)C)[C@@H](C)O) [[G^14, (Orn^16, E^21)lac]ADM(14-52)] |
| 303 | > 1000 | GGERFGT[Dap]TVQKLAHQIYQFTDKDKDNVAPRSKISPQGY-NH2 (lactam 3-8) [[G^14, (E^16, Dpr^21)lac]ADM(14-52)] |
| 16.9 | 15 | GGCRFGTXTVQKLAHQIYQFTDKDKDNVAPRSKISPQGY (palmitic acid (PAM) on the N-terminus (G14); positions 16 and 21 (residues 3 and 8 of the letters) together are cystathionine (C^16→U^21, thioether); X stands for the printed U at 21; C-terminal …) [PAM[G^14, (C^16→U^21)]ADM(14-52)] |
| > 1000 | > 1000 | GGKRFGTDTVQKLAHQIYQFTDKDKDNVAPRSKISPQGY-NH2 (lactam 3-8; N-terminus assumed; SMILES CC[C@H](C)[C@H](NC(=O)[C@H](CCC(N)=O)NC(=O)[C@H](Cc1c[nH]cn1)NC(=O)[C@H](C)NC(=O)[C@H](CC(C)C)NC(=O)[C@H](CCCCN)NC(=O)[C@H](CCC(N)=O)NC(=O)[C@@H](NC(=O)[C@@H](NC(=O)[C@@H]1CC(=O)NCCCC[C@H](NC(=O)CNC(=O)CN)C(=O)N[C@@H](CCCNC(=N)N)C(=O)N[C@@H](Cc2ccccc2)C(=O)NCC(=O)N[C@@H]([C@@H](C)O)C(=O)N1)[C@@H](C)O)C(C)C)C(=O)N[C@@H](Cc1ccc(O)cc1)C(=O)N[C@@H](CCC(N)=O)C(=O)N[C@@H](Cc1ccccc1)C(=O)N[C@H](C(=O)N[C@@H](CC(=O)O)C(=O)N[C@@H](CCCCN)C(=O)N[C@@H](CC(=O)O)C(=O)N[C@@H](CCCCN)C(=O)N[C@@H](CC(=O)O)C(=O)N[C@@H](CC(N)=O)C(=O)N[C@H](C(=O)N[C@@H](C)C(=O)N1CCC[C@H]1C(=O)N[C@@H](CCCNC(=N)N)C(=O)N[C@@H](CO)C(=O)N[C@@H](CCCCN)C(=O)N[C@H](C(=O)N[C@@H](CO)C(=O)N1CCC[C@H]1C(=O)N[C@@H](CCC(N)=O)C(=O)NCC(=O)N[C@@H](Cc1ccc(O)cc1)C(N)=O)[C@@H](C)CC)C(C)C)[C@@H](C)O) [[G^14, (K^16, D^21)lac]ADM(14-52)] |
| 3.4 | 56 | K(Palmitoyl)G[Dap]RFGTETVQKLAHQIYQFTDKDKDNVAPRS[NMeK]ISPQGY-NH2 (lactam 3-8; N-terminus assumed; SMILES CCCCCCCCCCCCCCCC(=O)NCCCC[C@H](N)C(=O)NCC(=O)N[C@H]1CNC(=O)CC[C@@H](C(=O)N[C@H](C(=O)N[C@H](C(=O)N[C@@H](CCC(N)=O)C(=O)N[C@@H](CCCCN)C(=O)N[C@@H](CC(C)C)C(=O)N[C@@H](C)C(=O)N[C@@H](Cc2c[nH]cn2)C(=O)N[C@@H](CCC(N)=O)C(=O)N[C@H](C(=O)N[C@@H](Cc2ccc(O)cc2)C(=O)N[C@@H](CCC(N)=O)C(=O)N[C@@H](Cc2ccccc2)C(=O)N[C@H](C(=O)N[C@@H](CC(=O)O)C(=O)N[C@@H](CCCCN)C(=O)N[C@@H](CC(=O)O)C(=O)N[C@@H](CCCCN)C(=O)N[C@@H](CC(=O)O)C(=O)N[C@@H](CC(N)=O)C(=O)N[C@H](C(=O)N[C@@H](C)C(=O)N2CCC[C@H]2C(=O)N[C@@H](CCCNC(=N)N)C(=O)N[C@@H](CO)C(=O)N(C)[C@@H](CCCCN)C(=O)N[C@H](C(=O)N[C@@H](CO)C(=O)N2CCC[C@H]2C(=O)N[C@@H](CCC(N)=O)C(=O)NCC(=O)N[C@@H](Cc2ccc(O)cc2)C(N)=O)[C@@H](C)CC)C(C)C)[C@@H](C)O)[C@@H](C)CC)C(C)C)[C@@H](C)O)NC(=O)[C@H]([C@@H](C)O)NC(=O)CNC(=O)[C@H](Cc2ccccc2)NC(=O)[C@H](CCCNC(=N)N)NC1=O) [[K^14(PAM), (Dpr^16,E^21)lac, N-Me-K^46]ADM(14-52)] |
